The record followed here is the supplement of paper PMC7125110.

± gives the standard error. For part of these data: Variants at the floor of the assay were thinned out.

What is called kcat is the number of substrate molecules converted per active site and unit of time at saturation. As a reminder, the KM is the substrate concentration at which the rate is half of its maximum.

B1: glmS ribozyme (parent)
chain: AUAAAAGCGCCAGAACUACAGAAAUGUAGUUGACGAGGAGGAGGUUUAUCGAAUUUUCGGCGGAUGCCUCCAAA

Common to all, as to details: with glucosamine-6-phosphate
The variants in data set [1] derive from B1. The data set is described as follows: kcat; higher = faster cleavage; RNA array. The method, boiled down:
(§1)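 In situ transcription by E. coli RNA polymerase produced barcoded ribozyme variants on sequenced MiSeq chips, and a hybridised Cy3 probe tracked them at 37 °C. Glucosamine-6-phosphate was flowed in at 40 μM to 10 mM in HEPES/KCl/Mg(OAc)2 buffer. kcat and KM were taken from weighted Michaelis–Menten fits of kobs values from exponential decay fits.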

Variants of B1 are the subject of data set [2]. Description: KM; higher = weaker cofactor use; RNA array. Put shortly:
as §1

The variants in data set [3] derive from B1. The data set is described as follows: self-cleavage kobs at 40 uM GlcN6P; higher = faster cleavage; RNA array. The method, boiled down:
as §1

Data set [4] covers variants of B1. The data set is described as follows: self-cleavage kobs at 160 uM GlcN6P; higher = faster cleavage; RNA array. Put shortly: as §1
In data set [5] the parent is B1. Description: self-cleavage kobs at 640 uM GlcN6P; higher = faster cleavage; RNA array. Put shortly: as §1
The variants in data set [6] derive from B1. The data set is described as follows: self-cleavage kobs at 2500 uM GlcN6P; higher = faster cleavage; RNA array. Put shortly: as §1
In data set [7] the parent is B1. The data set is described as follows: self-cleavage kobs at 10000 uM GlcN6P; higher = faster cleavage; RNA array. Put shortly:
as §1

For A15U C68U, in the data set with glucosamine-6-phosphate [1], the kcat was determined as 0.000466 ± 3e-05 s⁻¹. Besides, in the data set with glucosamine-6-phosphate [2], the Michaelis-Menten constant (KM) was found to be 1610 ± 210 µM. Moreover, the “self-cleavage kobs at 40 uM GlcN6P” value in the data set with glucosamine-6-phosphate [3] turned out to be 1.92e-05 ± 9.6e-06 s⁻¹. Also, the “self-cleavage kobs at 160 uM GlcN6P” value in the data set with glucosamine-6-phosphate [4] was 4.94e-05 ± 7.4e-06 s⁻¹. Besides, in the data set with glucosamine-6-phosphate [5], the “self-cleavage kobs at 640 uM GlcN6P” value is 0.000127 ± 9.9e-06 s⁻¹. For the same variant, in the data set with glucosamine-6-phosphate [6], the “self-cleavage kobs at 2500 uM GlcN6P” value came out at 0.000277 ± 2.2e-05 s⁻¹. In addition, in the data set with glucosamine-6-phosphate [7], the “self-cleavage kobs at 10000 uM GlcN6P” value was 0.000409 ± 2.7e-05 s⁻¹.
Turning to A12G A52G, the kcat with glucosamine-6-phosphate [1] was 3.09e-05 ± 1e-05 s⁻¹. For the same variant, in the data set with glucosamine-6-phosphate [6], the “self-cleavage kobs at 2500 uM GlcN6P” value stood at 5.02e-05 ± 1.5e-05 s⁻¹. The “self-cleavage kobs at 10000 uM GlcN6P” value with glucosamine-6-phosphate [7] came to 2.49e-05 ± 8.8e-06 s⁻¹.
For C16G C50A U57C C68U C71G, in the data set with glucosamine-6-phosphate [1], the catalytic constant (kcat) came to 2.93e-05 ± 8.8e-06 s⁻¹.
As for C50U U69G C70U, the kcat with glucosamine-6-phosphate [1] worked out at 5.07e-05 ± 2.4e-05 s⁻¹. Besides, the “self-cleavage kobs at 640 uM GlcN6P” value in the data set with glucosamine-6-phosphate [5] stood at 8.65e-05 ± 3.1e-05 s⁻¹.
For the variant A48U A53G, in the data set with glucosamine-6-phosphate [1], the kcat stood at 0.000396 ± 3.6e-05 s⁻¹. The KM with glucosamine-6-phosphate [2] turned out to be 1560 ± 290 µM. The “self-cleavage kobs at 160 uM GlcN6P” value with glucosamine-6-phosphate [4] came out at 2.96e-05 ± 1.2e-05 s⁻¹. Besides, in the data set with glucosamine-6-phosphate [5], the “self-cleavage kobs at 640 uM GlcN6P” value was 0.000127 ± 1.9e-05 s⁻¹. In addition, in the data set with glucosamine-6-phosphate [6], the “self-cleavage kobs at 2500 uM GlcN6P” value came to 0.000229 ± 3.5e-05 s⁻¹. Further, in the data set with glucosamine-6-phosphate [7], the “self-cleavage kobs at 10000 uM GlcN6P” value was 0.000349 ± 4.7e-05 s⁻¹.
Take C16A C70A: in the data set with glucosamine-6-phosphate [1], the kcat came to 3.47e-05 ± 1.4e-05 s⁻¹. In addition, the “self-cleavage kobs at 640 uM GlcN6P” value with glucosamine-6-phosphate [5] was 3.14e-05 ± 1.6e-05 s⁻¹. Besides, the “self-cleavage kobs at 2500 uM GlcN6P” value with glucosamine-6-phosphate [6] was determined as 6.59e-05 ± 2.4e-05 s⁻¹.
Take C11U U55A U56G: in the data set with glucosamine-6-phosphate [1], the kcat came to 0.000956 ± 0.00038 s⁻¹. The “self-cleavage kobs at 40 uM GlcN6P” value in the data set with glucosamine-6-phosphate [3] was 4.23e-05 ± 1.9e-05 s⁻¹. In addition, the “self-cleavage kobs at 640 uM GlcN6P” value with glucosamine-6-phosphate [5] came out at 0.000289 ± 4.5e-05 s⁻¹. Moreover, in the data set with glucosamine-6-phosphate [6], the “self-cleavage kobs at 2500 uM GlcN6P” value was 0.000451 ± 0.00012 s⁻¹. For the same variant, the “self-cleavage kobs at 10000 uM GlcN6P” value with glucosamine-6-phosphate [7] amounted to 0.00113 ± 0.00024 s⁻¹.
For A39U G44A, the kcat with glucosamine-6-phosphate [1] was 0.00136 ± 0.00031 s⁻¹. The KM in the data set with glucosamine-6-phosphate [2] came out at 572 ± 210 µM. Besides, the “self-cleavage kobs at 40 uM GlcN6P” value with glucosamine-6-phosphate [3] worked out at 0.000115 ± 1.3e-05 s⁻¹. For the same variant, the “self-cleavage kobs at 160 uM GlcN6P” value in the data set with glucosamine-6-phosphate [4] came out at 0.00021 ± 3.9e-05 s⁻¹. Also, the “self-cleavage kobs at 640 uM GlcN6P” value with glucosamine-6-phosphate [5] is 0.00078 ± 9.9e-05 s⁻¹. The “self-cleavage kobs at 2500 uM GlcN6P” value with glucosamine-6-phosphate [6] stood at 0.001 ± 0.00017 s⁻¹. Also, the “self-cleavage kobs at 10000 uM GlcN6P” value with glucosamine-6-phosphate [7] was determined as 0.00144 ± 0.00021 s⁻¹.
On to G13U C61A, for which the kcat with glucosamine-6-phosphate [1] amounted to 1.33e-05 ± 2.2e-06 s⁻¹.
Regarding A39C C67U, the kcat with glucosamine-6-phosphate [1] turned out to be 0.000495 ± 9.5e-05 s⁻¹. The KM with glucosamine-6-phosphate [2] came to 1150 ± 400 µM. The “self-cleavage kobs at 40 uM GlcN6P” value with glucosamine-6-phosphate [3] was found to be 3.13e-05 ± 7.5e-06 s⁻¹. In the data set with glucosamine-6-phosphate [4], the “self-cleavage kobs at 160 uM GlcN6P” value stood at 7.1e-05 ± 8.8e-06 s⁻¹. The “self-cleavage kobs at 640 uM GlcN6P” value with glucosamine-6-phosphate [5] is 0.000154 ± 1.3e-05 s⁻¹. Besides, the “self-cleavage kobs at 2500 uM GlcN6P” value with glucosamine-6-phosphate [6] turned out to be 0.000377 ± 3.5e-05 s⁻¹. For the same variant, the “self-cleavage kobs at 10000 uM GlcN6P” value with glucosamine-6-phosphate [7] was 0.000443 ± 5.1e-05 s⁻¹.
Regarding C50A A52C, the kcat with glucosamine-6-phosphate [1] is below 1e-05 s⁻¹. Further, the KM with glucosamine-6-phosphate [2] is 2730 ± 690 µM. In the data set with glucosamine-6-phosphate [3], the “self-cleavage kobs at 40 uM GlcN6P” value was below 1e-05 s⁻¹. In addition, the “self-cleavage kobs at 160 uM GlcN6P” value in the data set with glucosamine-6-phosphate [4] is below 1e-05 s⁻¹. Further, the “self-cleavage kobs at 640 uM GlcN6P” value in the data set with glucosamine-6-phosphate [5] is below 1e-05 s⁻¹.
On to U31C C58U, for which, in the data set with glucosamine-6-phosphate [1], the kcat came out at 2.26e-05 ± 7.2e-06 s⁻¹. In the data set with glucosamine-6-phosphate [6], the “self-cleavage kobs at 2500 uM GlcN6P” value was determined as 2.64e-05 ± 1.3e-05 s⁻¹.
A12U C61G: the catalytic constant (kcat) with glucosamine-6-phosphate [1] was below 1e-05 s⁻¹. Also, the “self-cleavage kobs at 40 uM GlcN6P” value with glucosamine-6-phosphate [3] was below 1e-05 s⁻¹.
With U45C U65G, the kcat in the data set with glucosamine-6-phosphate [1] turned out to be 0.000191 ± 3.7e-05 s⁻¹. Also, the KM with glucosamine-6-phosphate [2] was found to be 1810 ± 840 µM. Also, the “self-cleavage kobs at 640 uM GlcN6P” value with glucosamine-6-phosphate [5] came out at 4.57e-05 ± 9.8e-06 s⁻¹. For the same variant, the “self-cleavage kobs at 2500 uM GlcN6P” value with glucosamine-6-phosphate [6] came to 0.000188 ± 4e-05 s⁻¹. For the same variant, in the data set with glucosamine-6-phosphate [7], the “self-cleavage kobs at 10000 uM GlcN6P” value was found to be 0.000154 ± 2e-05 s⁻¹.
Consider G59C C68G, for which, in the data set with glucosamine-6-phosphate [1], the kcat was 2.78e-05 ± 1e-05 s⁻¹.
G41U U56A: the kcat in the data set with glucosamine-6-phosphate [1] worked out at 0.00219 ± 0.00072 s⁻¹. For the same variant, the KM in the data set with glucosamine-6-phosphate [2] turned out to be 4700 ± 2000 µM. Further, in the data set with glucosamine-6-phosphate [3], the “self-cleavage kobs at 40 uM GlcN6P” value was 3.42e-05 ± 8.2e-06 s⁻¹. The “self-cleavage kobs at 160 uM GlcN6P” value with glucosamine-6-phosphate [4] came out at 7.37e-05 ± 1.6e-05 s⁻¹. The “self-cleavage kobs at 640 uM GlcN6P” value in the data set with glucosamine-6-phosphate [5] came to 0.000234 ± 3.5e-05 s⁻¹. In the data set with glucosamine-6-phosphate [6], the “self-cleavage kobs at 2500 uM GlcN6P” value was found to be 0.000769 ± 0.0001 s⁻¹. Besides, in the data set with glucosamine-6-phosphate [7], the “self-cleavage kobs at 10000 uM GlcN6P” value came out at 0.00153 ± 0.00029 s⁻¹.
Take U55C C68U: the kcat with glucosamine-6-phosphate [1] amounted to 3.04e-05 ± 1.7e-06 s⁻¹. In the data set with glucosamine-6-phosphate [7], the “self-cleavage kobs at 10000 uM GlcN6P” value amounted to 2.9e-05 ± 9.1e-06 s⁻¹.
For U46C U69C, the kcat with glucosamine-6-phosphate [1] was 0.00112 ± 0.0002 s⁻¹. The KM with glucosamine-6-phosphate [2] was 644 ± 250 µM. Further, the “self-cleavage kobs at 40 uM GlcN6P” value in the data set with glucosamine-6-phosphate [3] stood at 5.23e-05 ± 2.2e-05 s⁻¹. In addition, the “self-cleavage kobs at 640 uM GlcN6P” value with glucosamine-6-phosphate [5] was determined as 0.000644 ± 0.00013 s⁻¹. Further, the “self-cleavage kobs at 2500 uM GlcN6P” value with glucosamine-6-phosphate [6] came out at 0.00117 ± 0.00032 s⁻¹. For the same variant, the “self-cleavage kobs at 10000 uM GlcN6P” value with glucosamine-6-phosphate [7] came to 0.000936 ± 0.00019 s⁻¹.
